Assay: label from the status in PepcDB records

MSVKAYLELIRVHNVVGSAVSAFMGYVIATTWKFTPLFFLPLLVVSLIAAGGYVINDVYDIEVDKINKPERPLPSGRIAVNIARRFSIVLFAVGLIISIPLGLIPFGFALITIVLLYEYARSLKKLGLVGNFIVALTSALSAYYGGLASGSLLGNFIIPTIYIFFFTLSREFVKGIEDIEGDKRNGVNTLAVKLGEKSTWIIAKIILGILIFTSPLPYFLGFNVIYLIGILALDVLLVYILILHNTIESATKARSLMKIYAIGTLIVFTLGSLRI
protein production: failed

MPKLDRYLLSDFTQSFLATLIVLLVVSVGGVLVDILGNIADGRIPARLLLSQVGLQFVAYLPIILPLALMLGLLLALARLYRDSEMAVITAIGVGPTRMLRPLLMLVVPVVVVIGLCSLWLGPWASRTAEAMLEDANRSVLMAGLESGQFTPLSDGGVVYMQTISADGKGLGKIFLQRQQNDRIDVVTADRGALFFEGKTDRYLHLDDGYRTEGPAGGATLDYRLMKFASSDIALPDRTRLHDANDPEVMWTTQLLSDERPAARAQLHERLAPPLLALAFAMLTLPLSRSAPRQQRYGRIMLAFLAYMVGTNLMIVGTQWIANGKAPAALGLWWLTLPLLAVAVWAYARDGRVRRPRARA
protein production: failed

MARKRLIIEMGMGIDQHGQEPTIAASRAVRNAIAHNALPGVWEVAGLSHPNEMIIEVQVAVPYPEQVREEEVLAVLPFGRKTLTVESGGMIVQGRAIPELNDKNDEMLIAIAAVTVLIENE
protein production: not failed

MVPIPNGVSAKETHKLMGRGIAAFALLLLLQVSGSIVTQSGLAAPWWNAMFLWLLLTGIGCFSVASIRGRGLRWTSSILSLLVLAGLLLWPAAVPTTVPVDIGTPWLWAMINVGAAWSAFAFGTLPGCVYTVVIGSVFAVVRTLPQSGSASPSTAIQDASFSTVLGIIICLTIGILRQASERVDTAAENAINRYREAAAETALSNERTRVDGLLHDSVMSALLTASRSGSSLERLSSAELARSALARLGEHEIKQTDATTVSVSELASRIRFTVQDDGDTPTVTVTGEGSTSLLLSGQVVRALFEASTEAVANAVRHSNATRCEVRVLGQDPKGIARVVVSVKDNGDGFRQELVSDRRLGIKVSIIGRMRTIGGTADISSHPGKGTEVILTWAGEA
protein production: failed

MMLSATQPLSEKLPAHGCRHVAIIMDGNGRWAKKQGKIRAFGHKAGAKSVRRAVSFAANNGIEALTLYAFSSENWNRPAQEVSALMELFVWALDSEVKSLHRHNVRLRIIGDTSRFNSRLQERIRKSEALTAGNTGLTLNIAANYGGRWDIVQGVRQLAEKVQQGNLQPDQIDEEMLNQHVCMHELAPVDLVIRTGGEHRISNFLLWQIAYAELYFTDVLWPDFDEQDFEGALNAFANRERRFGGTEPGDETA
protein production: not failed

MLKGFTRSSISPQLCSLYFKGLVGDDSLAGFGVAICGHRDDILFQLNAPIHGSDITVLEAELMALKRGLIEAAGFKSSFTIFVEGSSIRYVSELARATIVSELSISVDPPSSSLNGIEKLKLEDVIVWNVVNPYASTAKFGKSENVASMWKVPTHDRTFRRMHQSNLQFTFDFLGCWIGVAIRFATHAEQNGSKEVALIEQ
protein production: failed

MRPADRCRSPTGRPATGRHRPDIFTNTVEWDAFEAAPLYGDTTSSFVCQSRMTGEYFPKMGGHAMKNRLACTAVIAAIFCTTSASAQKLPEIWEVTKLVPGSAFHGVHGLGIDKAGHLFAGSVAGAMLYEVDIASGTAKVAIPAPIGMADDIAFAPDGTMAWTGFLAGDLYSRKGDGPIKKLASGLPGINSLAFRKDGRLYATTVFLGDTLYEIDVEGVKPPRQIMEKMGGLNGFEFGPDDKLYGPLWFKGQVAKVDVDKAELTVVADGFKVPAAVNFDSKGNLWVVDTALGQLVRVDPKSGAKTMVAQLKPSLDNLAIDEKDRIYVSNMADNGIQEVDPASGQAKQIIIGKLALPGGIGVTSENGKDTIHVADVFAYRTVDGTTGEVTEKARMHAAGVTLEYPMSATAKGNDVILSSWFTGTVQVIDNKTGATRDMLHDFKAPHDAIVLEDGSILVAELGTKSLVRVSGEHGKDRTTLIGDLEGPVGLVAGSRGEVYVTEAFAGVVSKIEQNGEKTVLVKELKMPEGLARTSDGKLIVAEVGARRLIEITPEDGKITEIAADLPIGLAGAPGGLPTHIPTGVAIGATGVIYFSSDIENAIYKAVKK
protein production: failed

MPYLLLTLAALFWGGNYVVGHVLVQGVDPILMTEARWALTALLLGLLYRRQIAGSRRLLRANAPAVVVLTLCGQVSFPLTLYIGLQTTSALNAAIYMSATPSMVLLINRLFFRDPVSGRNWLGVAFSTLGVMILLFQGNPLHAASLHTFAIGDLWAMGSALSWALYCSLLRLKDRRIPANGFVAVSSLLGALILVPIVIFWLMRHPAQDWAAWREPFFLSGLAYLVIFPSWLAYLFWNKGIATIGATRGEIYTHIIPLSGGVLSILFLHTQPHAWHLFSALFIMVGIGICSLEKRQAASIRLRD
protein production: failed

MRARPYPTSTYFVSTADGRLPAMSQPIAAPFRQQLLDLVARIPPGRVMTYGQLALLAGQPGAARQAGAVMHSLKDSDLPWQRVINAQGRVSTYKVGLGEVQEGLLRAEGIEFDDAGRCDLSRYQWWPDENAANIAQRLL
protein production: failed

GGLTEICRKPVSPGCISSVSDWLISIGLPMYAGTLSTAGFSTLSQVPSLSHTCLQEAGITEERHIRKLLSAARLFKLPPGPEAM
protein production: not failed

MASEDKFESVLSTRYCKNSPLVSILSETNKATLWRQLWIWLAEAEKELGLKQVTQDAIDEMKSNRDVFDWPFIRSEERKLKHDVMAHNHAFGKLCPTAAGIIHLGATSCFVQDNADLIAYRDSIDHILKRFATVIDRLAAFSLKNKEVVTVGRTHYQTASLVTVGKRGVLWAQELLMAFQSLSEFRDKMRFRGIKGATGTQDSFLTLFAGDESKVEALDELVTKKANFSNRFLITGQTYSRQQDSQLVFSLSLLGAAAKKVCTDIRVLQAFGELLEPFEKDQIGSSAMPYKKNPMKSERCCALSRKLINAPQEALTILADQGLERTLDDSAGRRMLIPDVLLTAEALLTTLQNIFEGLSVQTDNVKKIVEDEIAFLGLEKAMMMLTEEGVDRQQAHAVIRKTALEAKQLQATQKVDIRQTMADPFFDSVRDRVVGLVNNPINFTGRCVSQTESFIAKELKPTIDKYLDKSAGNVQLDV
protein production: not failed

MAEIYRETEVTVARALRPPVPPKRASWIGTFFGVAADPRTYGALFYMLLSLLTGVFYFTWVVTGASLSVGMLILIIGVPLLVLFFGSVRVLSLVEGRVVETLLGVRMPRRPQHPGLQGGWLQRIGAMFTDARTWSTMLYFLLMLPLGILYFTVFCTLLSLSLGLAASPIAVLFDNVAVLTWDGVDVTSAWLTLPLCVVGVLLLFVTLHLARAFGTLHGMFAKQLLVKGGEAAA
protein production: failed

MEDLLVVGQIINTHGLRGEMKVMPLTEDMRRFDYLEYVILKGKKVKVEGVKYFKDKVILKLEGINSIEEAEKLKRTYLEIEREDAIELEEDEYFIVDLVGCTVVDTEGFEYGKIKDVIQTPSNDVYWVQGKKEVLVPVLKDIVLDINMDEKLITIRPSGEWQYEDLEHHHHHH
protein production: failed

MRDPVSRLPNREQFQSDLYDLADENPGERRVLVLVDAVDMTVAHELTLAMGLAPFETIVRFLAQQLLAYLGRHVRVYHVSVKRFGFLLPAAPGIERFLESLVRRLRRQPPGLELPMIPGVCAGTVEFSTDRDAVPDVLRKAMFALELATLNRSTWAPYDVVRLEHHHHHH
protein production: failed

MALTSGQVGNLLNAFDSHGGHFQTQMAFRLMWLTLTRANESVQARWDEFDLANGLWKIPKERMKARREHLLPLPRQAVSILTTMQPITGQSTYVFPNRDDRHKPMSDAAFRQALKKLGWATIYSPHGTRTTGSTRLNEMGLEHHHHHH
protein production: failed

MPPNTSFRLAALAVTVSGLLFSSSTLMAAETAETADLVLRNGNIYTVNQGQPWAEAVAVRDGRYVFIGSNAQAAEFIGPKTQVVDLNGSMAMPGINDVHAHPLDGGYEDIYSCNFSQKSSLDDILSQVSECAQKAGPGEWVIGSAWGSPRMAELSTTEALAKLDKVSNGRPVILRDDSYHNRWINSEAMRLAAITAQSVSPAGGVIVKDAKTGEPTGLLQEFPAFQHVQSLVPVRTEEQRLTSGRGATKTMVSLGITGVQEAVSSEVNLRIWSKIDRAEGLPLRIIGSIVSTPLLDEGAAGLELVARRDVYRTTNFFPDRFKFVLDGVPPAHTAKLIEPYLPTQAHGDHYHGDTHYTTEQVVEILSKLDKQGISTKLHAAGDGSLRLALDAVEQVRKINGPNGPMHQIAHTHLISPQDMPRFAQLRVAADLSPMLWFPSDMTNASVVTIGEERMKDFVPTVKLLRSGAVVAGGSDWPAGGPTPSPWIGIEGLVTRQNPLGDAPGTLAPEEAVDLPEAIRIYTINSAKAMGIEKETGSVELGKSADLIVLDRHLFNVPIKQVHRANVVKTYFKGQLVHSAPEKS
protein production: failed

Source: a protein production outcome set (Wang et al. 2014)
